This assay addresses capping protein (CP), purified, as used in pyrene-actin polymerization assays. As to the kind of experiment: pyrene-actin seeded polymerization assay.

Broadly, the Kd is the concentration at which binding is half-saturated. High values mean lower affinity, low ones higher affinity.

As for “CARMIL2-CBR (CP-binding region of human CARMIL2b, Pro-961 to Arg-1072) (from UniProt Q6F5E8-2 961-1072) (domain or fragment)”, the Kd turned out to be 2.9 nM.
